Measurements from the RNAGym collection of RNA variant scans (doi:10.1021/acssynbio.7b00057).

B1: Pistol ribozyme (parent)
chain: GGGUCGUUGUUCCAUAAUCGCGUGGAUAUGGCACGCAAGUUUCUACCGGGCACCGUAAAUGUCCGACUGGAGCCGUUCGGGCGGCUAUAAACAGACCUCAGGCCCGAAGCGUGGCGGCACCUGCCGCCGGUGGUAAAAAAGAUCGGAAGAGCACACGUCU

Variants of: B1
Test: aptazyme ON/OFF ratio, guanine; higher = stronger switching; co-transcriptional cleavage with and without guanine

In order of rising “aptazyme ON/OFF ratio” value:
1. GGGUCGUACGACUAUAAUCGCGUGGAUAUGGCACGCAAGUUUCUACCGGGCACCGUAAAUGUCCGACUGGAGCCGUUCGGGCGGCUAUAAACAGACCUCAGGCCCGAAGCGUGGCGGCACCUGCCGCCGGUGGUAAAAAAGAUCGGAAGAGCACACGUCU [U8A G9C U10G U11A C13U]  1.02
2. GGGUCGUACGACAAUAAUCGCGUGGAUAUGGCACGCAAGUUUCUACCGGGCACCGUAAAUGUCCGACUGGAGCCGUUCGGGCGGCUAUAAACAGACCUCAGGCCCGAAGCGUGGCGGCACCUGCCGCCGGUGGUAAAAAAGAUCGGAAGAGCACACGUCU [U8A G9C U10G U11A C13A]  1.03
3. GGGUCGUACGCUCAUAAUCGCGUGGAUAUGGCACGCAAGUUUCUACCGGGCACCGUAAAUGUCCGACUGGAGCCGUUCGGGCGGCUAUAAACAGACCUCAGGCCCGAAGCGUGGCGGCACCUGCCGCCGGUGGUAAAAAAGAUCGGAAGAGCACACGUCU [U8A G9C U10G U11C C12U]  1.05
4. GGGUCGUACGACGAUAAUCGCGUGGAUAUGGCACGCAAGUUUCUACCGGGCACCGUAAAUGUCCGACUGGAGCCGUUCGGGCGGCUAUAAACAGACCUCAGGCCCGAAGCGUGGCGGCACCUGCCGCCGGUGGUAAAAAAGAUCGGAAGAGCACACGUCU [U8A G9C U10G U11A C13G]  1.06
5. GGGUCGUACGAUUAUAAUCGCGUGGAUAUGGCACGCAAGUUUCUACCGGGCACCGUAAAUGUCCGACUGGAGCCGUUCGGGCGGCUAUAAACAGACCUCAGGCCCGAAGCGUGGCGGCACCUGCCGCCGGUGGUAAAAAAGAUCGGAAGAGCACACGUCU [U8A G9C U10G U11A C12U C13U]  1.08
6. GGGUCGUACGAUGAUAAUCGCGUGGAUAUGGCACGCAAGUUUCUACCGGGCACCGUAAAUGUCCGACUGGAGCCGUUCGGGCGGCUAUAAACAGACCUCAGGCCCGAAGCGUGGCGGCACCUGCCGCCGGUGGUAAAAAAGAUCGGAAGAGCACACGUCU [U8A G9C U10G U11A C12U C13G]  1.11
7. GGGUCGUACGAUAAUAAUCGCGUGGAUAUGGCACGCAAGUUUCUACCGGGCACCGUAAAUGUCCGACUGGAGCCGUUCGGGCGGCUAUAAACAGACCUCAGGCCCGAAGCGUGGCGGCACCUGCCGCCGGUGGUAAAAAAGAUCGGAAGAGCACACGUCU [U8A G9C U10G U11A C12U C13A]  1.12
8. GGGUCGUACGGAAAUAAUCGCGUGGAUAUGGCACGCAAGUUUCUACCGGGCACCGUAAAUGUCCGACUGGAGCCGUUCGGGCGGCUAUAAACAGACCUCAGGCCCGAAGCGUGGCGGCACCUGCCGCCGGUGGUAAAAAAGAUCGGAAGAGCACACGUCU [U8A G9C U10G U11G C12A C13A]  1.13
9. GGGUCGUACGGACAUAAUCGCGUGGAUAUGGCACGCAAGUUUCUACCGGGCACCGUAAAUGUCCGACUGGAGCCGUUCGGGCGGCUAUAAACAGACCUCAGGCCCGAAGCGUGGCGGCACCUGCCGCCGGUGGUAAAAAAGAUCGGAAGAGCACACGUCU [U8A G9C U10G U11G C12A]  1.14
10. GGGUCGUACGCGCAUAAUCGCGUGGAUAUGGCACGCAAGUUUCUACCGGGCACCGUAAAUGUCCGACUGGAGCCGUUCGGGCGGCUAUAAACAGACCUCAGGCCCGAAGCGUGGCGGCACCUGCCGCCGGUGGUAAAAAAGAUCGGAAGAGCACACGUCU [U8A G9C U10G U11C C12G]  1.14
11. GGGUCGUACGAAGAUAAUCGCGUGGAUAUGGCACGCAAGUUUCUACCGGGCACCGUAAAUGUCCGACUGGAGCCGUUCGGGCGGCUAUAAACAGACCUCAGGCCCGAAGCGUGGCGGCACCUGCCGCCGGUGGUAAAAAAGAUCGGAAGAGCACACGUCU [U8A G9C U10G U11A C12A C13G]  1.16
12. GGGUCGUACGCGGAUAAUCGCGUGGAUAUGGCACGCAAGUUUCUACCGGGCACCGUAAAUGUCCGACUGGAGCCGUUCGGGCGGCUAUAAACAGACCUCAGGCCCGAAGCGUGGCGGCACCUGCCGCCGGUGGUAAAAAAGAUCGGAAGAGCACACGUCU [U8A G9C U10G U11C C12G C13G]  1.17
13. GGGUCGUACGAAAAUAAUCGCGUGGAUAUGGCACGCAAGUUUCUACCGGGCACCGUAAAUGUCCGACUGGAGCCGUUCGGGCGGCUAUAAACAGACCUCAGGCCCGAAGCGUGGCGGCACCUGCCGCCGGUGGUAAAAAAGAUCGGAAGAGCACACGUCU [U8A G9C U10G U11A C12A C13A]  1.18
14. GGGUCGUACGCACAUAAUCGCGUGGAUAUGGCACGCAAGUUUCUACCGGGCACCGUAAAUGUCCGACUGGAGCCGUUCGGGCGGCUAUAAACAGACCUCAGGCCCGAAGCGUGGCGGCACCUGCCGCCGGUGGUAAAAAAGAUCGGAAGAGCACACGUCU [U8A G9C U10G U11C C12A]  1.18
15. GGGUCGUACGCGUAUAAUCGCGUGGAUAUGGCACGCAAGUUUCUACCGGGCACCGUAAAUGUCCGACUGGAGCCGUUCGGGCGGCUAUAAACAGACCUCAGGCCCGAAGCGUGGCGGCACCUGCCGCCGGUGGUAAAAAAGAUCGGAAGAGCACACGUCU [U8A G9C U10G U11C C12G C13U]  1.19
16. GGGUCGUACGAAUAUAAUCGCGUGGAUAUGGCACGCAAGUUUCUACCGGGCACCGUAAAUGUCCGACUGGAGCCGUUCGGGCGGCUAUAAACAGACCUCAGGCCCGAAGCGUGGCGGCACCUGCCGCCGGUGGUAAAAAAGAUCGGAAGAGCACACGUCU [U8A G9C U10G U11A C12A C13U]  1.21
17. GGGUCGUACGCGAAUAAUCGCGUGGAUAUGGCACGCAAGUUUCUACCGGGCACCGUAAAUGUCCGACUGGAGCCGUUCGGGCGGCUAUAAACAGACCUCAGGCCCGAAGCGUGGCGGCACCUGCCGCCGGUGGUAAAAAAGAUCGGAAGAGCACACGUCU [U8A G9C U10G U11C C12G C13A]  1.27
18. GGGUCGUACGUCUAUAAUCGCGUGGAUAUGGCACGCAAGUUUCUACCGGGCACCGUAAAUGUCCGACUGGAGCCGUUCGGGCGGCUAUAAACAGACCUCAGGCCCGAAGCGUGGCGGCACCUGCCGCCGGUGGUAAAAAAGAUCGGAAGAGCACACGUCU [U8A G9C U10G C13U]  1.31
